Data as given in patent US9493557B2, “Chemokine binding polypeptides for treating autoimmunity and inflammation” (Biokine Therapeutics Ltd., priority 2009, dated 2016).

How the values were obtained:
Assay type in all cases: cell-based
IP-10 = molecular target: T1, IP-10 (Homo sapiens, UniProt P02778); assay: In vitro T cell adhesion to VCAM-1 induced by IP-10 under shear flow; details: for Inhibition of chemokine-dependent T cell adhesion: IP-10: 10 μg/ml peptide, T cells on VCAM-1 under shear flow
T1 construct: purchased PeproTech
T1 sequence (P02778 22-98): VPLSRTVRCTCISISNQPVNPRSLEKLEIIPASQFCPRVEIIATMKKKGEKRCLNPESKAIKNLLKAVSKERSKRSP
Description: (§1) 50 ml of blood was added to 10 ml of a solution of Dextran T-500 (6% w/v) in PBS (phosphate buffer saline), and 7 ml of citrate buffer (25 grams citrate, 8 grams citric acid in 500 ml PBS). The solution was incubated for 30 minutes at 25° C. 10 ml of Ficoll 1077 was added to the bottom of the tube. The tube was then centrifuged at 2,000 rotations per minute for 30 minutes at 18° C. (with the brake mode of the centrifuge off). The interphase was collected and washed twice with 8 ml PBS with 5% FCS (fetal calf serum), followed by centrifugation at 1,400 rotations per minute for 5 minutes at 18° C. The cells were re-suspended in PBS with 5% FCS at a concentration less then 10^8 per ml. 2 ml of the cell solution were applied on a poly(methyl methacrylate) nylon wool column which was pre-soaked in PBS-5% FCS, and then incubated for 45 minutes at 25° C. Each column was washed with 8 ml PBS-5% FCS and the cells (T-cells and erythrocytes) were eluted by 50 ml of 5 mM EDTA (ethylenediaminetetraacetic acid) in PBS. A red pellet was obtained by centrifugation at 1,400 rotations per minute for 5 minutes at 4° C. (with the brake on).
(§2) In order to perform lysis of the erythrocytes, the red pellet was re-suspended in 5 ml of lysis-buffer (155 mM NH4Cl, 10 mM KHCO3, 0.1 mM EDTA, X0.1 PBS) for 4 minutes, followed by immediate addition of 50 ml of PBS with EDTA. Following centrifugation at 1,400 rotations per minute for 5 minutes at 4° C., the pellet was washed again with 50 ml PBS-EDTA and re-centrifuged under the same conditions. […] The cells were ready for use in experiments after overnight incubation at 37° C. […]
(§3) The plates were then assembled as the lower wall of a parallel wall flow chamber and mounted on the stage of an inverted microscope. […] The number of adherent cells resisting detachment by the elevated shear forces was determined after each interval by analysis of videotaped cell images, and was expressed as the percent of originally settled cells. […]

I-TAC = molecular target: T2, I-TAC (Homo sapiens, UniProt O14625); assay: In vitro T cell adhesion to VCAM-1 induced by I-TAC under shear flow; details: for Inhibition of chemokine-dependent T cell adhesion: I-TAC: 10 μg/ml peptide, T cells on VCAM-1 under shear flow; for T cell adhesion induced by I-TAC (result in words): T cells on VCAM-1
T2 construct: purchased PeproTech
T2 sequence (O14625 22-94): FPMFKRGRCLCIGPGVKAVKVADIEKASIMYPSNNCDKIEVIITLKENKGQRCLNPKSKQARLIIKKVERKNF
Description: as §1
(§4) In order to perform lysis of the erythrocytes, the red pellet was re-suspended in 5 ml of lysis-buffer (155 mM NH4Cl, 10 mM KHCO3, 0.1 mM EDTA, X0.1 PBS) for 4 minutes, followed by immediate addition of 50 ml of PBS with EDTA. Following centrifugation at 1,400 rotations per minute for 5 minutes at 4° C., the pellet was washed again with 50 ml PBS-EDTA and re-centrifuged under the same conditions. A white pellet was obtained and re-suspended in RPMI medium with 10% FCS, L-glutamine, sodium pyruvate and antibiotics at a concentration of 3×10^6 cells per ml. The cells were incubated for 2 hours at 37° C., followed by collection of the non-adherent cells. The cells were ready for use in experiments after overnight incubation at 37° C.
(§5) 10 μg/ml of human VCAM-1 and 2 μg/ml of a chemokine (intact MIG, IP-10, I-TAC, MCP-1, RANTES, SDF-1 (stromal cell-derived factor-1), BCA-1 (B lymphocyte chemoattractant-1), IL-8 (interleukin-8) or eotaxin, or heat-inactivated SDF-1 as a control) were dissolved in PBS buffered with 20 mM bicarbonate (pH 8.5), and incubated in polystyrene plates overnight at 4° C. Alternatively, 10 μg/ml of the chemokine was used, and the plates were incubated for 30 minutes at room temperature. […]
as §3

MIG = molecular target: T3, MIG (Homo sapiens, UniProt Q07325); assay: In vitro T cell adhesion to VCAM-1 induced by MIG under shear flow; details: for Inhibition of chemokine-dependent T cell adhesion: MIG: 10 μg/ml peptide, T cells on VCAM-1 under shear flow
T3 construct: purchased PeproTech
T3 sequence (Q07325 23-125): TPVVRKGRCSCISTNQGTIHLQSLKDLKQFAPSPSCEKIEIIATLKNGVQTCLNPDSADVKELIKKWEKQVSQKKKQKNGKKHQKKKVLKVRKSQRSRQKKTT
Description: as §1, §2, §3

MCP-1 = molecular target: T4, MCP-1 (Homo sapiens, UniProt P13500); assay: In vitro T cell adhesion to VCAM-1 induced by MCP-1 under shear flow; details: for Inhibition of chemokine-dependent T cell adhesion: MCP-1: 10 μg/ml peptide, T cells on VCAM-1 under shear flow; for T cell adhesion induced by MCP-1 (result in words): T cells on VCAM-1
T4 construct: purchased PeproTech
T4 sequence (P13500 24-99): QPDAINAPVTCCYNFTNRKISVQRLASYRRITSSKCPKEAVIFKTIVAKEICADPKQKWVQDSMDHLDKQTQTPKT
Description: as §1, §4, §5, §3

RANTES = molecular target: T5, RANTES (Homo sapiens, UniProt P13501); assay: In vitro T cell adhesion to VCAM-1 induced by RANTES under shear flow; details: for Inhibition of chemokine-dependent T cell adhesion: RANTES: 10 μg/ml peptide, T cells on VCAM-1 under shear flow; for T cell adhesion induced by RANTES (result in words): T cells on VCAM-1
T5 construct: purchased PeproTech
T5 sequence (P13501 24-91): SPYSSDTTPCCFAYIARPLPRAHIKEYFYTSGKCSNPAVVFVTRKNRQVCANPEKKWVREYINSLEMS
Description: as §1, §4, §5, §3

Eotaxin = molecular target: T6, Eotaxin (Homo sapiens, UniProt P51671); assay: In vitro T cell adhesion to VCAM-1 induced by eotaxin under shear flow; details: for Inhibition of chemokine-dependent T cell adhesion: Eotaxin: 10 μg/ml peptide, T cells on VCAM-1 under shear flow
T6 construct: purchased PeproTech
Description: as §1, §2, §3

SDF-1 = molecular target: T7, SDF-1 (Homo sapiens, UniProt P48061); assay: In vitro T cell adhesion to VCAM-1 induced by SDF-1 under shear flow; details: 10 μg/ml peptide; T cells on VCAM-1 under shear flow
T7 construct: purchased PeproTech
T7 sequence (P48061 22-89 limits assumed): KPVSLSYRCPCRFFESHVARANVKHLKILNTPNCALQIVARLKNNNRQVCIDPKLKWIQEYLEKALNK
Description: (§6) 50 ml of blood was added to 10 ml of a solution of Dextran T-500 (6% w/v) in PBS (phosphate buffer saline), and 7 ml of citrate buffer (25 grams citrate, 8 grams citric acid in 500 ml PBS). The solution was incubated for 30 minutes at 25° C. 10 ml of Ficoll 1077 was added to the bottom of the tube. The tube was then centrifuged at 2,000 rotations per minute for 30 minutes at 18° C. (with the brake mode of the centrifuge off). The interphase was collected and washed twice with 8 ml PBS with 5% FCS (fetal calf serum), followed by centrifugation at 1,400 rotations per minute for 5 minutes at 18° C. The cells were re-suspended in PBS with 5% FCS at a concentration less then 10^8 per ml. […]
(§7) In order to perform lysis of the erythrocytes, the red pellet was re-suspended in 5 ml of lysis-buffer (155 mM NH4Cl, 10 mM KHCO3, 0.1 mM EDTA, X0.1 PBS) for 4 minutes, followed by immediate addition of 50 ml of PBS with EDTA. […] The cells were ready for use in experiments after overnight incubation at 37° C. […]
as §3

IL-8 = molecular target: T8, IL-8 (Homo sapiens, UniProt P10145); assay: In vitro T cell adhesion to VCAM-1 induced by IL-8 under shear flow; details: 10 μg/ml peptide; T cells on VCAM-1 under shear flow
T8 construct: purchased PeproTech
T8 sequence (P10145 21-99): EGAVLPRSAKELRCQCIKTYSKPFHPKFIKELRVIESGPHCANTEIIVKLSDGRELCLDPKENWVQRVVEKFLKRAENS
Description: as §6, §7, §3

BCA-1 = molecular target: T9, BCA-1 (Homo sapiens, UniProt O43927); assay: In vitro T cell adhesion to VCAM-1 induced by BCA-1 under shear flow; details: 10 μg/ml peptide; T cells on VCAM-1 under shear flow
T9 sequence (O43927 23-109): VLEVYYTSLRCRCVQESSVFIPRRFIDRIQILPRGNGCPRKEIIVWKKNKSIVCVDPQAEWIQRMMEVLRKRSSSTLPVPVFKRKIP
Description: as §6, §7, §3

Inhibition of chemokine-dependent T cell adhesion: IP-10 (IP-10)	Inhibition of chemokine-dependent T cell adhesion: I-TAC (I-TAC)	T cell adhesion induced by I-TAC (result in words) (I-TAC)	Inhibition of chemokine-dependent T cell adhesion: MIG (MIG)	T cell adhesion induced by MIG (result in words) (MIG; T cells on VCAM-1)	Inhibition of chemokine-dependent T cell adhesion: MCP-1 (MCP-1)	T cell adhesion induced by MCP-1 (result in words) (MCP-1)	Inhibition of chemokine-dependent T cell adhesion: RANTES (RANTES)	T cell adhesion induced by RANTES (result in words) (RANTES)	Inhibition of chemokine-dependent T cell adhesion: Eotaxin (Eotaxin)	Inhibition of chemokine-dependent T cell adhesion: SDF-1 (SDF-1)	Inhibition of chemokine-dependent T cell adhesion: IL-8 (IL-8)	T cell adhesion induced by IP-10 (result in words) (IP-10; T cells on VCAM-1)	T cell adhesion induced by eotaxin (result in words) (Eotaxin; T cells on VCAM-1)	Inhibition of chemokine-dependent T cell adhesion: BCA-1 (BCA-1)	Sequence
− (− = no inhibition)	++ (++ = 100% inhibition)	inhibited	++ (++ = 100% inhibition)	inhibited	++ (++ = 100% inhibition)	inhibited	++ (++ = 100% inhibition)	inhibited	− (− = no inhibition)	− (− = no inhibition)	− (− = no inhibition)				LDYPIPQTVLHH [BKT-P46, reference compound]
++ (++ = 100% inhibition)	++ (++ = 100% inhibition)	inhibited	− (− = no inhibition)		++ (++ = 100% inhibition)	inhibited	++ (++ = 100% inhibition)	inhibited	++ (++ = 100% inhibition)	− (− = no inhibition)		inhibited	inhibited	− (− = no inhibition)	SIPSHSIHSAKA [BKT-P2, reference compound]
